# Patent publication US20250043302A1, “MUTATED HYDROXYPHENYLPYRUVATE DIOXYGENASE POLYPEPTIDE, AND CODING GENE AND USE THEREOF” (BEIJING DABEINONG BIOTECHNOLOGY CO., LTD., priority 2021, published 2025)
# How the values were obtained:
# [1] = tested on: Arabidopsis thaliana T1 plants; assay: Isoxaflutole tolerance of transgenic Arabidopsis thaliana T1 plants (spray, bleached leaf area grade, damage score); format: in vivo; conditions: for Classification and statistics of the grade of pesticide damage Grade 0 / Classification and statistics of the grade of pesticide damage Grade 1 / Classification and statistics of the grade of pesticide damage Grade 2 / Classification and statistics of the grade of pesticide damage Grade 3: number of plants in grade;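 for Scores: Weighted damage index from 0 to 100 where higher means more damage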
# Procedure, shortened: (§1)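 Read-out: per-plant damage grade 0–3 from proportion of bleached leaf area at 7 DAT (1 <50%, 2 >50%, 3 100%). Plants were T1 transformants, glufosinate-selected, plus wild-type CK, sprayed 18 days post-sowing. Rates: topramezone 25–200, isoxaflutole 35–280, mesotrione 52.5–420 g ai/ha.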
# [2] = tested on: Arabidopsis thaliana T1 plants; assay: Mesotrione tolerance of transgenic Arabidopsis thaliana T1 plants (spray, bleached leaf area grade, damage score); format: in vivo; set-up: Scores: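 damage score 0-100 computed as Σ(N×S)/(T×M)×100 over grades 0-3 with higher meaning more damage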; conditions: for Classification and statistics of the grade of pesticide damage Grade 0 / Classification and statistics of the grade of pesticide damage Grade 1 / Classification and statistics of the grade of pesticide damage Grade 2 / Classification and statistics of the grade of pesticide damage Grade 3: number of plants in grade
# Procedure, shortened: as §1
molecule,measurement,setting,value
"AsHPPDm-F372A-F415W-02: nucleotide sequence encoding Avena sativa HPPD with F372A+F415W; vector DBN11792 (nucleic acid, AsHPPDm-F372A-F415W-02 Nucleotide Sequence, vector DBN11792) DNA: ATGCCACCTACTCCAGCTACAGCTACTGGTGCTGCTGCTGCTGCCGTTACTCCTGAGCACGCTGCCAGGTCATTCCCCAGGGTGGTTCGCGTGAACCCCAGATCTGATAGGTTCCCAGTTCTGAGCTTCCACCATGTTGAGCTGTGGTGCGCTGATGCTGCTTCTGCTGCTGGCAGGTTCTCTTTCGCTCTTGGTGCTCCACTCGCTGCTAGATCTGATCTGTCTACAGGAAATAGCGCTCATGCCTCACTCCTGCTTCGCTCAGGTGCTTTGGCCTTCCTCTTCACCGCTCCATATGCTCCCCCACCTCAGGAGGCTGCTACTGCTGCTGCTACAGCCTCCATTCCAAGCTTCTCAGCTGATGCCGCTAGAACCTTCGCTGCTGCTCATGGACTTGCCGTGAGGTCTGTTGGTGTTCGCGTGGCTGATGCTGCTGAGGCTTTCAGAGTTTCCGTTGCCGGCGGAGCTAGGCCAGCTTTCGCTCCTGCTGATTTGGGACATGGTTTCGGCCTGGCTGAGGTTGAGCTTTACGGTGACGTGGTTCTCCGCTTCGTGTCTTACCCAGATGAGACTGACCTGCCTTTCCTTCCCGGCTTCGAGAGAGTTTCCTCTCCTGGTGCCGTGGATTACGGCCTGACAAGGTTCGACCACGTGGTTGGAAACGTTCCCGAGATGGCTCCAGTGATCGATTACATGAAGGGCTTCCTTGGATTCCATGAGTTCGCCGAGTTCACTGCTGAGGACGTGGGAACCACTGAGTCCGGTTTGAACTCTGTGGTTCTCGCCAACAATTCTGAGGCTGTTTTGCTCCCTCTGAATGAGCCTGTGCATGGAACCAAGAGGAGAAGCCAGATTCAAACTTACCTGGAGTACCACGGTGGCCCTGGAGTTCAGCATATCGCCCTTGCTTCTAATGATGTGTTGCGCACACTCAGAGAGATGCGCGCCAGAACCCCCATGGGAGGTTTCGAGTTCATGGCCCCACCACAGGCTAAGTACTACGAGGGCGTTAGAAGGATTGCTGGAGACGTGTTGAGCGAGGAGCAGATCAAGGAGTGCCAAGAGCTGGGTGTTCTTGTGGATAGGGATGACCAGGGCGTTCTGCTTCAAATTGCCACTAAGCCAGTGGGCGACCGCCCTACATTCTTCCTTGAGATGATTCAAAGAATCGGCTGCATGGAGAAGGATGAGGTTGGACAGGAGTACCAAAAGGGCGGATGCGGTGGCTTCGGAAAGGGTAACTGGAGCGAGTTGTTCAAGTCAATCGAGGACTACGAGAAGAGCCTCGAGGTGAAGCAGTCAGTGGTTGCCCAAAAGTCCTGA",Resistance evaluation,[1]; isoxaflutole 140 g ai/ha,Moderately
same,Scores,[1]; isoxaflutole 140 g ai/ha,31
same,Classification and statistics of the grade of pesticide damage Grade 0,[1]; isoxaflutole 140 g ai/ha,5
same,Classification and statistics of the grade of pesticide damage Grade 1,[1]; isoxaflutole 140 g ai/ha,7
same,Classification and statistics of the grade of pesticide damage Grade 2,[1]; isoxaflutole 140 g ai/ha,4
same,Classification and statistics of the grade of pesticide damage Grade 3,[1]; isoxaflutole 140 g ai/ha,0
same,Resistance evaluation,[1]; isoxaflutole 280 g ai/ha,Poorly
same,Scores,[1]; isoxaflutole 280 g ai/ha,63
same,Classification and statistics of the grade of pesticide damage Grade 0,[1]; isoxaflutole 280 g ai/ha,0
same,Classification and statistics of the grade of pesticide damage Grade 1,[1]; isoxaflutole 280 g ai/ha,3
same,Classification and statistics of the grade of pesticide damage Grade 2,[1]; isoxaflutole 280 g ai/ha,12
same,Classification and statistics of the grade of pesticide damage Grade 3,[1]; isoxaflutole 280 g ai/ha,1
same,Resistance evaluation,[2]; mesotrione 210 g ai/ha,Moderately
same,Scores,[2]; mesotrione 210 g ai/ha,31
same,Classification and statistics of the grade of pesticide damage Grade 0,[2]; mesotrione 210 g ai/ha,6
same,Classification and statistics of the grade of pesticide damage Grade 1,[2]; mesotrione 210 g ai/ha,6
same,Classification and statistics of the grade of pesticide damage Grade 2,[2]; mesotrione 210 g ai/ha,3
same,Classification and statistics of the grade of pesticide damage Grade 3,[2]; mesotrione 210 g ai/ha,1
same,Resistance evaluation,[2]; mesotrione 420 g ai/ha,Poorly resistant
same,Scores,[2]; mesotrione 420 g ai/ha,50
same,Classification and statistics of the grade of pesticide damage Grade 0,[2]; mesotrione 420 g ai/ha,0
same,Classification and statistics of the grade of pesticide damage Grade 1,[2]; mesotrione 420 g ai/ha,8
same,Classification and statistics of the grade of pesticide damage Grade 2,[2]; mesotrione 420 g ai/ha,8
same,Classification and statistics of the grade of pesticide damage Grade 3,[2]; mesotrione 420 g ai/ha,0
